# Experimental data reported in IntAct's records for PubMed 31515488.
# B1: Lipopolysaccharide-induced tumor necrosis factor-alpha factor (Homo sapiens), Q99732 (parent)
# chain: MSVPGPYQAATGPSSAPSAPPSYEETVAVNSYYPTPPAPMPGPTTGLVTGPDGKGMNPPSYYTQPAPIPNNNPITVQTVYVQHPITFLDRPIQMCCPSCNKMIVSQLSYNAGALTWLSCGSLCLLGCIAGCCFIPFCVDALQDVDHYCPNCRALLGTYKRL
# B2: Zinc finger protein 544 (Homo sapiens), Q6NX49 (parent)
# chain: MEARSMLVPPQASVCFEDVAMAFTQEEWEQLDLAQRTLYREVTLETWEHIVSLGLFLSKSDVISQLEQEEDLCRAEQEAPRDWKATLEENRLNSEKDRAREELSHHVEVYRSGPEEPPSLVLGKVQDQSNQLREHQENSLRFMVLTSERLFAQREHCELELGGGYSLPSTLSLLPTTLPTSTGFPKPNSQVKELKQNSAFINHEKNGADGKHCESHQCARAFCQSIYLSKLGNVETGKKNPYEYIVSGDSLNYGSSLCFHGRTFSVKKSDDCKDYGNLFSHSVSLNEQKPVHFGKSQYECDECRETCSESLCLVQTERSGPGETPFRCEERCAAFPMASSFSDCNIIQTTEKPSVCNQCGKSFSCCKLIHQRTHTGEKPFECTQCGKSFSQSYDLVIHQRTHTGEKPYECDLCGKSFTQRSKLITHQRIHTGEKPYQCIECRKSFRWNSNLIVHQRIHTGEKPYECTHCGKSFSQSYELVTHKRTHTGEKPFKCTQCGKSFSQKYDLVVHQRTHTGEKPYECNLCGKSFSQSSKLITHQRIHTGEKPYQCIECGKSFRWNSNLVIHQRIHTGEKPYDCTHCGKSFSQSYQLVAHKRTHTGEKPYECNECGKAFNRSTQLIRHLQIHTGEKPYKCNQCNKAFARSSYLVMHQRTHTGEKPFECSQCGKAFSGSSNLLSHHRIHSGEKPYECSDCGKSFRQQSQLVVHRRTHTGEKP
# partner: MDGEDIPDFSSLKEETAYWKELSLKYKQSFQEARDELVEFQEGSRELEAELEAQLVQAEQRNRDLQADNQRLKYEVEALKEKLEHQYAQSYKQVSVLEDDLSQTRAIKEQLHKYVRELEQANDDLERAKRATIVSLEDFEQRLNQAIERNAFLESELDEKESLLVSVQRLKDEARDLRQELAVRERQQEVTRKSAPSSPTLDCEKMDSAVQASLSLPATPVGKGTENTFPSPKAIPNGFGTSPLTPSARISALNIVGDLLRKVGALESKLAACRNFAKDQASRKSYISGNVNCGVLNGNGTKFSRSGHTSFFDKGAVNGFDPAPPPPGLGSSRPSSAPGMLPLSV
# B3: Kelch-like protein 2 (Homo sapiens), O95198 (parent)
# chain: METPPLPPACTKQGHQKPLDSKDDNTEKHCPVTVNPWHMKKAFKVMNELRSQNLLCDVTIVAEDMEISAHRVVLAACSPYFHAMFTGEMSESRAKRVRIKEVDGWTLRMLIDYVYTAEIQVTEENVQVLLPAAGLLQLQDVKKTCCEFLESQLHPVNCLGIRAFADMHACTDLLNKANTYAEQHFADVVLSEEFLNLGIEQVCSLISSDKLTISSEEKVFEAVIAWVNHDKDVRQEFMARLMEHVRLPLLPREYLVQRVEEEALVKNSSACKDYLIEAMKYHLLPTEQRILMKSVRTRLRTPMNLPKLMVVVGGQAPKAIRSVECYDFKEERWHQVAELPSRRCRAGMVYMAGLVFAVGGFNGSLRVRTVDSYDPVKDQWTSVANMRDRRSTLGAAVLNGLLYAVGGFDGSTGLSSVEAYNIKSNEWFHVAPMNTRRSSVGVGVVGGLLYAVGGYDGASRQCLSTVECYNATTNEWTYIAEMSTRRSGAGVGVLNNLLYAVGGHDGPLVRKSVEVYDPTTNAWRQVADMNMCRRNAGVCAVNGLLYVVGGDDGSCNLASVEYYNPTTDKWTVVSSCMSTGRSYAGVTVIDKPL
# B4: Coiled-coil domain-containing protein 185 (Homo sapiens), Q8N715 (parent)
# chain: MAGFSHFSQPPYRDLWEPPRPGGERESTQRLGGQRSGADSTACSRAGTPGAESEAGACWLHPHCSFTPRPRRRGCSDSLRGSRSLSDVARRPLERSRKHRPRSRRLEDAWGETGTKPRPAWQPQTQLPPQRPQPCPHYPLAQGDSPPPCPGGAGTPLSGTFRVEKAQGGDQWAVPLGRHLGRWSPSSVPSERSSVPSQKFKRHSACVCAQKRDSSDQVESLASRDSQPLASSKEMRSPHTQVLKSKLEEVVVSSQDQQIVALVLTRLKKAQRIRELQQQAAKAWEELKRSDQKVQMTLERERRLLLRQSQEQWQEKEQRKTLQSPEQRGLRRDSQRKNVPPGESRWKEQPEDQESPRQEKLEKARAQAEHRKQCQVRRLREQEKMLRNLREQHSLQLQRRLVEACRKRHLHAVEGQKKVQDTNLSSLINYQARKVLMDCQAKAEELLRQLSLEQSFQRSQEIHQGLRKERQRELREKAQKEEEQLQQARWRAGESEEQRKMRKRILVELADEKIRQARSHVHKTTRDKVQHLRELNHLREKNHHILKLKAEKEEKCHIEGIKEAIKKKEQRVQHISQGKDPNFQEFQKLPQASRREERAPPNSSLDQMVLEAQLRACQQNRGY
# B5: Rieske domain-containing protein (Homo sapiens), Q8TAC1 (parent)
# chain: MNLDGSAQDPEKREYSSVCVGREDDIKKSERMTAVVHDREVVIFYHKGEYHAMDIRCYHSGGPLHLGDIEDFDGRPCIVCPWHKYKITLATGEGLYQSINPKDPSAKPKWCSKGIKQRIHTVTVDNGNIYVTLSNEPFKCDSDFYATGDFKVIKSSS
# partner: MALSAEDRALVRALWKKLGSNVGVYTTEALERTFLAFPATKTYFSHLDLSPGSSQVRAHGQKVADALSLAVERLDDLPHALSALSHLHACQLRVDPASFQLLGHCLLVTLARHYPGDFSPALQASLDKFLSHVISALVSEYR
# B6: Protein DDI1 homolog 1 (Homo sapiens), Q8WTU0 (parent)
# chain: MLITVYCVRRDLSEVTFSLQVSPDFELRNFKVLCEAESRVPVEEIQIIHMERLLIEDHCSLGSYGLKDGDIVVLLQKDNVGPRAPGRAPNQPRVDFSGIAVPGTSSSRPQHPGQQQQRTPAAQRSQGLASGEKVAGLQGLGSPALIRSMLLSNPHDLSLLKERNPPLAEALLSGSLETFSQVLMEQQREKALREQERLRLYTADPLDREAQAKIEEEIRQQNIEENMNIAIEEAPESFGQVTMLYINCKVNGHPLKAFVDSGAQMTIMSQACAERCNIMRLVDRRWAGVAKGVGTQRIIGRVHLAQIQIEGDFLQCSFSILEDQPMDMLLGLDMLRRHQCSIDLKKNVLVIGTTGTQTYFLPEGELPLCSRMVSGQDESSDKEITHSVMDSGRKEH
# partner: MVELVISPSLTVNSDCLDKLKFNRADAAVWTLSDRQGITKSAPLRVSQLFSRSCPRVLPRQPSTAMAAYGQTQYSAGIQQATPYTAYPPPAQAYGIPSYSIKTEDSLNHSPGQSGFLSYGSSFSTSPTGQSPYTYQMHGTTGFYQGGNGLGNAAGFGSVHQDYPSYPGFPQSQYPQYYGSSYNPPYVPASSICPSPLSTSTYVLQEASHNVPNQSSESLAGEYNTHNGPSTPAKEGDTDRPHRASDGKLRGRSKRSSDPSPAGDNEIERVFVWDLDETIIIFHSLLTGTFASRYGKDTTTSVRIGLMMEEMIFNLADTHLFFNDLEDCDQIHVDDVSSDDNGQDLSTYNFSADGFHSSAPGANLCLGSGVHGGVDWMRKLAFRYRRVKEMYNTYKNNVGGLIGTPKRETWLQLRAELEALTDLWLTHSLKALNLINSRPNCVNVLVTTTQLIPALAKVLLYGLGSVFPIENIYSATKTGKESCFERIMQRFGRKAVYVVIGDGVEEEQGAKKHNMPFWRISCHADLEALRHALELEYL
# B7: Cysteine-rich C-terminal protein 1 (Homo sapiens), Q9UGL9 (parent)
# chain: MSSQQSAVSAKGFSKGSSQGPAPCPAPAPTPAPASSSSCCGSGRGCCGDSGCCGSSSTSCCCFPRRRRRQRSSGCCCCGGGSQRSQRSNNRSSGCCSGC
# partner: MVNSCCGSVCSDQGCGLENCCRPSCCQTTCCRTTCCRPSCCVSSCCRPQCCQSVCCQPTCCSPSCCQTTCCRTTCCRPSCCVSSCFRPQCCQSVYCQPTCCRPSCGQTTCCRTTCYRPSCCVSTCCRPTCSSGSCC
# B8: E3 ubiquitin-protein ligase CBL-B (Homo sapiens), Q13191 (parent)
# chain: MANSMNGRNPGGRGGNPRKGRILGIIDAIQDAVGPPKQAAADRRTVEKTWKLMDKVVRLCQNPKLQLKNSPPYILDILPDTYQHLRLILSKYDDNQKLAQLSENEYFKIYIDSLMKKSKRAIRLFKEGKERMYEEQSQDRRNLTKLSLIFSHMLAEIKAIFPNGQFQGDNFRITKADAAEFWRKFFGDKTIVPWKVFRQCLHEVHQISSGLEAMALKSTIDLTCNDYISVFEFDIFTRLFQPWGSILRNWNFLAVTHPGYMAFLTYDEVKARLQKYSTKPGSYIFRLSCTRLGQWAIGYVTGDGNILQTIPHNKPLFQALIDGSREGFYLYPDGRSYNPDLTGLCEPTPHDHIKVTQEQYELYCEMGSTFQLCKICAENDKDVKIEPCGHLMCTSCLTAWQESDGQGCPFCRCEIKGTEPIIVDPFDPRDEGSRCCSIIDPFGMPMLDLDDDDDREESLMMNRLANVRKCTDRQNSPVTSPGSSPLAQRRKPQPDPLQIPHLSLPPVPPRLDLIQKGIVRSPCGSPTGSPKSSPCMVRKQDKPLPAPPPPLRDPPPPPPERPPPIPPDNRLSRHIHHVESVPSRDPPMPLEAWCPRDVFGTNQLVGCRLLGEGSPKPGITASSNVNGRHSRVGSDPVLMRKHRRHDLPLEGAKVFSNGHLGSEEYDVPPRLSPPPPVTTLLPSIKCTGPLANSLSEKTRDPVEEDDDEYKIPSSHPVSLNSQPSHCHNVKPPVRSCDNGHCMLNGTHGPSSEKKSNIPDLSIYLKGDVFDSASDPVPLPPARPPTRDNPKHGSSLNRTPSDYDLLIPPLGEDAFDALPPSLPPPPPPARHSLIEHSKPPGSSSRPSSGQDLFLLPSDPFVDLASGQVPLPPARRLPGENVKTNRTSQDYDQLPSCSDGSQAPARPPKPRPRRTAPEIHHRKPHGPEAALENVDAKIAKLMGEGYAFEEVKRALEIAQNNVEVARSILREFAFPPPVSPRLNL
# B9: Paraneoplastic antigen-like protein 5 (Homo sapiens), Q96PV4 (parent)
# chain: MALTLLEDWCKGMDMDPRKALLIVGIPMECSEVEIQDTVKAGLQPLCAYRVLGRMFRREDNAKAVFIELADTVNYTTLPSHIPGKGGSWEVVVKPRNPDDEFLSRLNYFLKDEGRSMTDVARALGCCSLPAESLDAEVMPQVRSPPLEPPKESMWYRKLKVFSGTASPSPGEETFEDWLEQVTEIMPIWQVSEVEKRRRLLESLRGPALSIMRVLQANNDSITVEQCLDALKQIFGDKEDFRASQFRFLQTSPKIGEKVSTFLLRLEPLLQKAVHKSPLSVRSTDMIRLKHLLARVAMTPALRGKLELLDQRGCPPNFLELMKLIRDEEEWENTEAVMKNKEKPSGRGRGASGRQARAEASVSAPQATVQARSFSDSSPQTIQGGLPPLVKRRRLLGSESTRGEDHGQATYPKAENQTPGREGPQAAGEELGNEAGAGAMSHPKPWET
# partner: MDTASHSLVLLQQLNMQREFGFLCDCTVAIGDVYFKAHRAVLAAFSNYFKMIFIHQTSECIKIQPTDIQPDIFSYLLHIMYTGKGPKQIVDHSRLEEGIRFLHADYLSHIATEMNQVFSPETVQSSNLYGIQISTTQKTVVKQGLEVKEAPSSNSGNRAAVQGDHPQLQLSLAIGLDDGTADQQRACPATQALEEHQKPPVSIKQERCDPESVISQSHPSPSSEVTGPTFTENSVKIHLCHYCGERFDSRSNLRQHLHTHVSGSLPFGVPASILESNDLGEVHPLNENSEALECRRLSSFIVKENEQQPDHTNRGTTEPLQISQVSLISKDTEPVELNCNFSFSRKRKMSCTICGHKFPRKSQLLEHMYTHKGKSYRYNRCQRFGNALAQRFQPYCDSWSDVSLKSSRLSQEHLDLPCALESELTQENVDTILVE
# Variants of: B1
# Conditions: with bag3_human BAG3, O95817
# Sequence of bag3_human BAG3, O95817 (O95817 whole entry): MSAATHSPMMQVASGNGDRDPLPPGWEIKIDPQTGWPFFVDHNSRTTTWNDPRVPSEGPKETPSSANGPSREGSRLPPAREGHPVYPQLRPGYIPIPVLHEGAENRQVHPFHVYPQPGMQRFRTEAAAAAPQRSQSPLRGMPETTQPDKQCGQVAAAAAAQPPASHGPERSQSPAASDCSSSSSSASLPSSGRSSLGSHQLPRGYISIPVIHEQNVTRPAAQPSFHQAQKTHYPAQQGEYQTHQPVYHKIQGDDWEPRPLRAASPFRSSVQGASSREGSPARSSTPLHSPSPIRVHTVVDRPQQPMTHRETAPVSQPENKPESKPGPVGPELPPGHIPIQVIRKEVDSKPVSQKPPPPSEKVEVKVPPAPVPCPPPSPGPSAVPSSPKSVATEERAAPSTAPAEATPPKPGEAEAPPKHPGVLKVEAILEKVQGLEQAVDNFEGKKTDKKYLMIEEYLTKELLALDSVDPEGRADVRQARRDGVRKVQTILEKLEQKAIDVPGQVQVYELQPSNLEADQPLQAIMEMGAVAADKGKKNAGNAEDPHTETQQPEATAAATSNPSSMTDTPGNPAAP
row,Variant,effect of a mutation on the interaction
1,C137Y,with no effect
2,I92V,with no effect

# Variants of: B1
# Conditions: with reep6_human REEP6, Q96HR9
# Sequence of reep6_human REEP6, Q96HR9 (Q96HR9 whole entry): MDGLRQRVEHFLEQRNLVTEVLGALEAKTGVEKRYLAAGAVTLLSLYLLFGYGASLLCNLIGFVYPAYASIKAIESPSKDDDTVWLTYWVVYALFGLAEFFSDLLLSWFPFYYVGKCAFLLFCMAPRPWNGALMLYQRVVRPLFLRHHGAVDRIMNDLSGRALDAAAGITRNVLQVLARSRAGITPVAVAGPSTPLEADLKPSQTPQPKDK
row,Variant,effect of a mutation on the interaction
1,C137Y,disrupting interaction strength

# Variants of: B1
# Conditions: with stam2_human STAM2, O75886
row,Variant,effect of a mutation on the interaction
1,C137Y,with no effect

# Variants of: B1
# Conditions: with hgs_human HGS
row,Variant,effect of a mutation on the interaction
1,C137Y,with no effect

# Variants of: B2
# Conditions: with ndel1_human NDEL1, Q9GZM8
row,Variant,effect of a mutation on the interaction
1,K406M,with no effect

# Variants of: B3
# Conditions: with cul3_human CUL3, Q13618
row,Variant,effect of a mutation on the interaction
1,V156I,with no effect

# Variants of: B3
# Conditions: with zn114_human ZNF114, Q8NC26
# Sequence of zn114_human ZNF114, Q8NC26 (Q8NC26 whole entry): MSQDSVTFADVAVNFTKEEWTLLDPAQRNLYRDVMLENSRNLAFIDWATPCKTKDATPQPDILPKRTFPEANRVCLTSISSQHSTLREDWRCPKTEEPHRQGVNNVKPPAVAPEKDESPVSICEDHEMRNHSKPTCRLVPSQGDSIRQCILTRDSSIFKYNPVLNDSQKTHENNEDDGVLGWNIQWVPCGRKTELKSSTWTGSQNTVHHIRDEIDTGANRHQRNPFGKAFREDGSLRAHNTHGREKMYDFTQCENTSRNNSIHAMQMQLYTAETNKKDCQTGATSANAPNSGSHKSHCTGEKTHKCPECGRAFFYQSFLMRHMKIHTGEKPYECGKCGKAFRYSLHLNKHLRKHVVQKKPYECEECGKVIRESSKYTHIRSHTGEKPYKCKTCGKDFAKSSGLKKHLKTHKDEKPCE
row,Variant,effect of a mutation on the interaction
1,V156I,with no effect

# Variants of: B3
# Conditions: with txd12_human TXNDC12, O95881
# Sequence of txd12_human TXNDC12, O95881 (O95881 whole entry): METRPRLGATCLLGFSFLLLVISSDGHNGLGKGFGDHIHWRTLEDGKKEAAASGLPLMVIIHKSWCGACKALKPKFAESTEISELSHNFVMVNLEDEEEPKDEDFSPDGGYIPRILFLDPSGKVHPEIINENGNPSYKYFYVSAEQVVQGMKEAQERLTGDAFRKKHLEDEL
row,Variant,effect of a mutation on the interaction
1,A480T,with no effect
2,S68A,with no effect

# Variants of: B3
# Conditions: with tma16_human TMA16, Q96EY4
row,Variant,effect of a mutation on the interaction
1,A480T,with no effect
2,S68A,with no effect

# Variants of: B4
# Conditions: with KRT15, P19012
# Sequence of KRT15, P19012 (P19012 whole entry): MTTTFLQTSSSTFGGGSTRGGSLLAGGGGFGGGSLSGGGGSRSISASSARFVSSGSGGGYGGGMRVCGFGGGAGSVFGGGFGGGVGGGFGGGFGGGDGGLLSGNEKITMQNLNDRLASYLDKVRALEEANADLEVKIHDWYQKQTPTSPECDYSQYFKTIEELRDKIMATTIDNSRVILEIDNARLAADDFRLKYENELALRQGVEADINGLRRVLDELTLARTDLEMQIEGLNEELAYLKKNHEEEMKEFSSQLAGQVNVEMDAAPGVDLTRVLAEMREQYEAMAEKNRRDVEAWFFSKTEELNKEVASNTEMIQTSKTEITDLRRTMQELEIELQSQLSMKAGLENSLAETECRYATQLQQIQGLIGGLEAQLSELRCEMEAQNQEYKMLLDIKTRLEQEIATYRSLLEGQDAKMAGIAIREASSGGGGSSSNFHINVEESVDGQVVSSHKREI
row,Variant,effect of a mutation on the interaction
1,S603G,with no effect

# Variants of: B5
# Conditions: with hbat_human HBQ1, P09105
row,Variant,effect of a mutation on the interaction
1,D38A,disrupting interaction strength

# Variants of: B6
# Conditions: with eya2_human EYA2, O00167
row,Variant,effect of a mutation on the interaction
1,R208G,with no effect
2,R87C,with no effect
3,S63A,with no effect
4,D323N,with no effect
5,G136S,with no effect
6,N228T,with no effect

# Variants of: B7
# Conditions: with kra42_human KRTAP4-2, Q9BYR5
row,Variant,effect of a mutation on the interaction
1,G20S,with no effect

# Variants of: B8
# Conditions: with gors2_human GORASP2, Q9H8Y8
row,Variant,effect of a mutation on the interaction
1,S622T,with no effect

# Variants of: B9
# Conditions: with zbt25_human ZBTB25, P24278
row,Variant,effect of a mutation on the interaction
1,R312Q,with no effect
2,V274M,with no effect
3,L21Q,disrupting interaction strength
4,T261A,with no effect
